B1: TRIM9 (parent)
chain: CVQCKMPVCYQCLEEGKHSSHEVK

Variants of: B1
Test: protein stability index of a GFP-peptide fusion (GPS, HEK-293T) (PSI 1-6); higher = more stable
Settings: c terminus: a fixed tail appended
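Also: lentivirally expressed fusions sorted by FACS into six bins by GFP to DsRed ratio, PSI derived from sequencing read proportions per bin multiplied by bin number.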

Variant | protein stability index
CVQCKMPVCYQFLEEGKHSSHEVK | 3.19
CVQCKMPVCYQVLEEGKHSSHEVK | 3.45
CVQCKMPVCYQALEEGKHSSHEVK | 3.35
CVQCKMPVCYQSLEEGKHSSHEVK | 4.48
CVQCKMPVCYQTLEEGKHSSHEVK | 3.42
CVQCKMPVCYQYLEEGKHSSHEVK | 3.58
CVQCKMPVCYQGLEEGKHSSHEVK | 3.81
CVQCKMPVCYQLLEEGKHSSHEVK | 3.48
CVQCKMPVCYQELEEGKHSSHEVK | 4.25
CVQCKMPVCYQILEEGKHSSHEVK | 2.28
CVQCKMPVCYQDLEEGKHSSHEVK | 4.2
CVQCKMPVCYQCLEEGKHQSHEVK | 4.51
CVQCKMPVCYQCLEEGKHISHEVK | 3.4
CVQCKMPVCYQCLEEGKHASHEVK | 4.41
CVQCKMPVCYQCLEEGKHPSHEVK | 4.17
CVQCKMPVCYQCLEEGKHVSHEVK | 3.86
CVQCKMPVCYQCLEEGKHCSHEVK | 3.85
CVQCKMPVCYQCLEEGKHKSHEVK | 3.9
CVQCKMFVCYQCLEEGKHSSHEVK | 2.48
CVQCKMCVCYQCLEEGKHSSHEVK | 4.06
CVQCKMVVCYQCLEEGKHSSHEVK | 3.52
CVQCKMMVCYQCLEEGKHSSHEVK | 4.33
CVQCKMIVCYQCLEEGKHSSHEVK | 3.69
CVQCKMPSCYQCLEEGKHSSHEVK | 4.53

Variant | protein stability index
CVQCKMPGCYQCLEEGKHSSHEVK | 4.82
CVQCKMPNCYQCLEEGKHSSHEVK | 4.49
CVQCKMPTCYQCLEEGKHSSHEVK | 3.79
CVQCKMPRCYQCLEEGKHSSHEVK | 3.75
CVQCKMPWCYQCLEEGKHSSHEVK | 3.76
CVQCKMPECYQCLEEGKHSSHEVK | 4.41
CVQCKMPYCYQCLEEGKHSSHEVK | 3.01
CVQCKMPCCYQCLEEGKHSSHEVK | 3.95
CVQCKMPPCYQCLEEGKHSSHEVK | 3.61
CVQCKMPMCYQCLEEGKHSSHEVK | 4.13
CVQCKMPVCYQCLEEGKHSSTEVK | 4.47
CVQCKMPVCYQCLEEGKHSSEEVK | 4.57
CVQCKMPVCYQCLEEGKHSSKEVK | 3.76
CVQCKMPVCYQCLEEGKHSSCEVK | 4.1
CVQCKMPVCYQCLEEGKHSSVEVK | 4.05
CVQCKMPVCYQCLEEGKHSSMEVK | 3.7
CVQCKMPVCYQCLEEGKHSSFEVK | 2.88
CVQCKMPVCYQCLEEGKHSSQEVK | 4.16
CVQCKMPVCYQCLEEGKHSSREVK | 3.36
CVQCKMPVCYQCLEEGKHSSAEVK | 3.15
CVQCKMPVCYQCLEEGKHSSYEVK | 3.14
EVQCKMPVCYQCLEEGKHSSHEVK | 3.95
RVQCKMPVCYQCLEEGKHSSHEVK | 3.58
MVQCKMPVCYQCLEEGKHSSHEVK | 2.93

Variant | protein stability index
FVQCKMPVCYQCLEEGKHSSHEVK | 2.58
TVQCKMPVCYQCLEEGKHSSHEVK | 3.75
KVQCKMPVCYQCLEEGKHSSHEVK | 3.65
PVQCKMPVCYQCLEEGKHSSHEVK | 2.86
LVQCKMPVCYQCLEEGKHSSHEVK | 3.27
DVQCKMPVCYQCLEEGKHSSHEVK | 3.77
CVQCKMPVCYQCLEEGCHSSHEVK | 3.47
CVQCKMPVCYQCLEEGEHSSHEVK | 3.89
CVQCKMPVCYQCLEEGAHSSHEVK | 4.14
CVQCKMPVCYQCLEEGRHSSHEVK | 2.96
CVQCKMPVCYQCLEEGHHSSHEVK | 4.47
CVRCKMPVCYQCLEEGKHSSHEVK | 4.22
CVTCKMPVCYQCLEEGKHSSHEVK | 3.56
CVGCKMPVCYQCLEEGKHSSHEVK | 3.73
CVMCKMPVCYQCLEEGKHSSHEVK | 3.4
CVICKMPVCYQCLEEGKHSSHEVK | 3.6
CVHCKMPVCYQCLEEGKHSSHEVK | 4.52
CVWCKMPVCYQCLEEGKHSSHEVK | 2.88
CVECKMPVCYQCLEEGKHSSHEVK | 3.82
CVYCKMPVCYQCLEEGKHSSHEVK | 3.04
CVQCKMPVCYQCLEEGKHSSHEMK | 4
CVQCKMPVCYQCLEEGKHSSHEYK | 3.46
CVQCKMPVCYQCLEEGKHSSHETK | 3.84
CVQCKMPVCYQCLEEGKHSSHEEK | 4.28

Variant | protein stability index
CVQCKMPVCYQCLEEGKHSSHEQK | 3.85
CVQCKMPVCYQCLEEGKHSSHEIK | 3.7
CVQCKMPVCYQCLEEGKHSSHEGK | 3.84
CVQCKMPVCYQCLEEGKHSSHEFK | 3.65
CVQCKMPVCYQCLEEGKHSSHELK | 3.16
CVQCKMPVCYQCLEEGKHSSHEDK | 4.44
CVQMKMPVCYQCLEEGKHSSHEVK | 3.37
CVQDKMPVCYQCLEEGKHSSHEVK | 4.01
CVQVKMPVCYQCLEEGKHSSHEVK | 2.9
CVQIKMPVCYQCLEEGKHSSHEVK | 2.44
CVQEKMPVCYQCLEEGKHSSHEVK | 3.38
CVQAKMPVCYQCLEEGKHSSHEVK | 3.2
CVQFKMPVCYQCLEEGKHSSHEVK | 2.66
CVQGKMPVCYQCLEEGKHSSHEVK | 3.15
CVQCKMPVCYQCLEEGKLSSHEVK | 3.55
CVQCKMPVCYQCLEEGKNSSHEVK | 3.94
CVQCKMPVCYQCLEEGKASSHEVK | 4.04
CVQCKMPVCYQCLEEGKCSSHEVK | 3.79
CVQCKMPVCYQCLEEGKKSSHEVK | 3.7
CVQCKMPVCYQCLEEGKISSHEVK | 3.41
CVQCKMPVCYQCLEEGKDSSHEVK | 4.46
CVQCKMPVCYQCLEEGKYSSHEVK | 3.55
CVQCKMPVCYSCLEEGKHSSHEVK | 3.67
CVQCKMPVCYCCLEEGKHSSHEVK | 4.83

Variant | protein stability index
CVQCKMPVCYRCLEEGKHSSHEVK | 3.77
CVQCKMPVCYGCLEEGKHSSHEVK | 4.92
CVQCKMPVCYICLEEGKHSSHEVK | 3.4
CVQCKMPVCYPCLEEGKHSSHEVK | 3.76
CVQCKMPVCYTCLEEGKHSSHEVK | 4.12
CVQCKMPVCYQCLECGKHSSHEVK | 4.14
CVQCKMPVCYQCLELGKHSSHEVK | 3.65
CVQCKMPVCYQCLEAGKHSSHEVK | 4.08
CVQCKMPVCYQCLERGKHSSHEVK | 3.47
CVQCKMPVCYQCLENGKHSSHEVK | 3.82
CVQCKMPVCYQCTEEGKHSSHEVK | 3.08
CVQCKMPVCYQCVEEGKHSSHEVK | 4.45
CVQCKMPVCYQCREEGKHSSHEVK | 4.13
CVQCKMPVCYQCPEEGKHSSHEVK | 4.47
CVQCKMPVCYQCSEEGKHSSHEVK | 4.7
CVQCKMPVCYQCAEEGKHSSHEVK | 4.22
CVQCKMPVCYQCWEEGKHSSHEVK | 4.7
CVQCKMPVCYQCEEEGKHSSHEVK | 4.16
CVQCKMPVCYQCNEEGKHSSHEVK | 3.46
CVQCKMPVCYQCLEEGKHSSHEVE | 4.59
CVQCKMPVCYQCLEEGKHSSHEVG | 3.19
CVQCKMPVCYQCLEEGKHSSHEVQ | 3.96
CVQCKMPVCYQCLEEGKHSSHEVI | 2.95
CVQCKMPVCYQCLEEGKHSSHEVY | 3.41

Variant | protein stability index
CVQCKMPVCYQCLEEGKHSSHEVS | 3.71
CVQCKMPVCYQCLEEGKHSSHEVM | 3.68
CVQCKAPVCYQCLEEGKHSSHEVK | 3.95
CVQCKFPVCYQCLEEGKHSSHEVK | 3.89
CVQCKSPVCYQCLEEGKHSSHEVK | 4.97
CVQCKQPVCYQCLEEGKHSSHEVK | 4.36
CVQCKCPVCYQCLEEGKHSSHEVK | 3.73
CVQCKYPVCYQCLEEGKHSSHEVK | 3.79
CVQCKMPVCYQCLEEAKHSSHEVK | 4.02
CVQCKMPVCYQCLEESKHSSHEVK | 3.7
CVQCKMPVCYQCLEEYKHSSHEVK | 3.41
CVQCKMPVCYQCLEEHKHSSHEVK | 3.36
CVQCKMPVCYQCLEELKHSSHEVK | 3.49
CVQCKMPVCYQCLEEFKHSSHEVK | 3.73
CVQCKMPVCYQCLEEIKHSSHEVK | 3.25
CVQCQMPVCYQCLEEGKHSSHEVK | 2.83
CVQCRMPVCYQCLEEGKHSSHEVK | 4.15
CVQCHMPVCYQCLEEGKHSSHEVK | 3.8
CVQCSMPVCYQCLEEGKHSSHEVK | 3.9
CVQCVMPVCYQCLEEGKHSSHEVK | 2.41
CVQCCMPVCYQCLEEGKHSSHEVK | 3.84
CVQCGMPVCYQCLEEGKHSSHEVK | 4.38
CVQCPMPVCYQCLEEGKHSSHEVK | 3.52
CVQCEMPVCYQCLEEGKHSSHEVK | 4.22

Variant | protein stability index
CVQCKMPVCYQCLEEGKHSMHEVK | 4
CVQCKMPVCYQCLEEGKHSYHEVK | 3.24
CVQCKMPVCYQCLEEGKHSKHEVK | 4.26
CVQCKMPVCYQCLEEGKHSLHEVK | 4.43
CVQCKMPVCYQCLEEGKHSQHEVK | 4.29
CVQCKMPVCYQCLEEGKHSCHEVK | 4.32
CVQCKMPVVYQCLEEGKHSSHEVK | 4.07
CVQCKMPVNYQCLEEGKHSSHEVK | 3.87
CVQCKMPVIYQCLEEGKHSSHEVK | 3.18
CVQCKMPVPYQCLEEGKHSSHEVK | 3.02
CVQCKMPVAYQCLEEGKHSSHEVK | 4.19
CVQCKMPVRYQCLEEGKHSSHEVK | 3.31
CVQCKMPVFYQCLEEGKHSSHEVK | 2.59
CVQCKMPVCYQCLEEGKHSSHQVK | 2.73
CVQCKMPVCYQCLEEGKHSSHNVK | 3.67
CVQCKMPVCYQCLEEGKHSSHPVK | 3.33
CVQCKMPVCYQCLEEGKHSSHVVK | 4.17
CVQCKMPVCYQCLEEGKHSSHIVK | 3.8
CQQCKMPVCYQCLEEGKHSSHEVK | 4.04
CPQCKMPVCYQCLEEGKHSSHEVK | 4.18
CTQCKMPVCYQCLEEGKHSSHEVK | 3.85
CDQCKMPVCYQCLEEGKHSSHEVK | 4.16
CAQCKMPVCYQCLEEGKHSSHEVK | 3.97
CNQCKMPVCYQCLEEGKHSSHEVK | 3.46

Variant | protein stability index
CIQCKMPVCYQCLEEGKHSSHEVK | 4.02
CYQCKMPVCYQCLEEGKHSSHEVK | 3.71
CSQCKMPVCYQCLEEGKHSSHEVK | 4.25
CEQCKMPVCYQCLEEGKHSSHEVK | 3.92
CMQCKMPVCYQCLEEGKHSSHEVK | 3.67
CVQCKMPVCMQCLEEGKHSSHEVK | 4.08
CVQCKMPVCHQCLEEGKHSSHEVK | 4
CVQCKMPVCKQCLEEGKHSSHEVK | 4.15
CVQCKMPVCNQCLEEGKHSSHEVK | 4.27
CVQCKMPVCDQCLEEGKHSSHEVK | 4.83
CVQCKMPVCPQCLEEGKHSSHEVK | 3.63
CVQCKMPVCAQCLEEGKHSSHEVK | 4.26
CVQCKMPVCIQCLEEGKHSSHEVK | 3.71
CVQCKMPVCYQCLVEGKHSSHEVK | 3.34
CVQCKMPVCYQCLPEGKHSSHEVK | 3.75
CVQCKMPVCYQCLLEGKHSSHEVK | 2.93
CVQCKMPVCYQCLCEGKHSSHEVK | 4.34
CVQCKMPVCYQCLHEGKHSSHEVK | 3.34
CVQCKMPVCYQCLSEGKHSSHEVK | 3.68
CVQCKMPVCYQCLFEGKHSSHEVK | 2.97

Source: the supplement of paper PMC10567573
